Laboratory results reported in patent US9845340B2, “Peptides that specifically bind HGF receptor (cMet) and uses thereof” (Dyax Corp., priority 2003, dated 2017).

Key:
cMet-Fc fusion protein = cMet-Fc fusion protein (Homo sapiens, UniProt P08581); experiment: Protein phage ELISA: peptide-displaying phage binding to soluble cMet-Fc versus TRAIL-Fc; conditions: phage isolate; cMet-Fc vs. TRAIL-Fc
Experimental: Protein phage ELISAs using peptide-displaying phage isolates from the various selection campaigns were performed to determine specificity of the peptides for cMet versus an unrelated Fc-fusion protein (TRAIL-Fc). Briefly, 384-well plates were coated overnight at 4 C with 0.5 μg/mL of cMet-Fc fusion protein or TRAIL-Fc fusion protein (background). The plates were blocked for 2 hours 37C with 3% (w/v) BSA in PBS containing 0.05% (v/v) Tween-20 (PBST). The plates were washed with PBST and 100 μL of peptide-displaying phage were added to each well. The plates were incubated for 2 hours at room temperature and washed with PBST. cMet-binding peptide-displaying phage were detected using an HRP-conjugated anti-M13 antibody.

[1] = biological target: T1, 3T3 cells that over-express human cMet (Homo sapiens, UniProt P08581); experiment: Whole cell ELISA of peptide-displaying phage; format: cell-based; conditions: phage isolate; 3T3 cells expressing human cMet vs. non-expressing 3T3 cells
T1 construct: expressed in transfected cells; host or cells: 3T3 cells
T1 sequence (P08581 25-1390): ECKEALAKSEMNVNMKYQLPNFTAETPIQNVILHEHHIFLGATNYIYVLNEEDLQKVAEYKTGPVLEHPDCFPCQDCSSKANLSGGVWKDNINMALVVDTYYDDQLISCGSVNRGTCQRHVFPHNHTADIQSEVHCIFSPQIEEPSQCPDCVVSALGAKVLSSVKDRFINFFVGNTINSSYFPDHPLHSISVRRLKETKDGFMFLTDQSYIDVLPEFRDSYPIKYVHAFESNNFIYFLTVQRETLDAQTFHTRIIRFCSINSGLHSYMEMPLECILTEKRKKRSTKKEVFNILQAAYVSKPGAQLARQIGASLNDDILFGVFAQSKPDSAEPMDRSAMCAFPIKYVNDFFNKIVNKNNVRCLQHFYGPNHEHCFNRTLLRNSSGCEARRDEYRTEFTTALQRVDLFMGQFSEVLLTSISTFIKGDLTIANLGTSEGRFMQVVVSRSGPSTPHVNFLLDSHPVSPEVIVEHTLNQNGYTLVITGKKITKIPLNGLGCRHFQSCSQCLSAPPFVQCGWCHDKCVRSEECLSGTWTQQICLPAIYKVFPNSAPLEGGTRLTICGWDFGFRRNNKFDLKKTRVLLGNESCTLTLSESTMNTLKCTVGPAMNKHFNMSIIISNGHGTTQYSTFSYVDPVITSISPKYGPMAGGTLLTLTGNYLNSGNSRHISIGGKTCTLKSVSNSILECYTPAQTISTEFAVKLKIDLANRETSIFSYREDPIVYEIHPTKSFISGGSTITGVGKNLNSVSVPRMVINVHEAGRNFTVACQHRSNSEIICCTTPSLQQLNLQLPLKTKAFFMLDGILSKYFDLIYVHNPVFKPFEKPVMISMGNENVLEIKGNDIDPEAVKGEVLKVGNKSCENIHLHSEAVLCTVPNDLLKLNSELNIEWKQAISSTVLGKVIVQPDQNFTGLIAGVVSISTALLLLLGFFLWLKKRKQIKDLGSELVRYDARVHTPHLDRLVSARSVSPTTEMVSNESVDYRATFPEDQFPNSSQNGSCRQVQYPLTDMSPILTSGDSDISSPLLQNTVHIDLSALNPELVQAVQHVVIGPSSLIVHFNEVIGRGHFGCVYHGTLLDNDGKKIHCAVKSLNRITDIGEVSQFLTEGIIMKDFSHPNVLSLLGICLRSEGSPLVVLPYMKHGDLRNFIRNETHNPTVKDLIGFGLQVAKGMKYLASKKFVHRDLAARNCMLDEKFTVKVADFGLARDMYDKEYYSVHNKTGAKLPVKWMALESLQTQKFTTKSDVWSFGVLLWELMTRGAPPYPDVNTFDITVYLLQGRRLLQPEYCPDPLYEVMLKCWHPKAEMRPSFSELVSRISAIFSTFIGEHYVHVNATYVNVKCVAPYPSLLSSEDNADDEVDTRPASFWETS
Experimental: Whole cell ELISAs were performed using 3T3 cells that over-express human cMet. […] Briefly, 96-well plates were seeded with 10^5 cells per well. The plates were centrifuged for 5 minutes at 1600 rpm to pellet the cells. The resulting cell layer was fixed with 0.1% (v/v) glutaraldehyde for 12 minutes at 37 C. […] Peptide-displaying phage also were blocked in the above solution for 1 hour at 37 C. 100 μL of blocked phage was then added to each well and the plates were incubated for 1 hour at room temperature. The plates were washed with PBST. cMet-binding peptide-displaying phage were detected using an HRP-conjugated anti-M13 antibody.

Sequence of cMet-Fc fusion protein (P08581 25-307 limits assumed): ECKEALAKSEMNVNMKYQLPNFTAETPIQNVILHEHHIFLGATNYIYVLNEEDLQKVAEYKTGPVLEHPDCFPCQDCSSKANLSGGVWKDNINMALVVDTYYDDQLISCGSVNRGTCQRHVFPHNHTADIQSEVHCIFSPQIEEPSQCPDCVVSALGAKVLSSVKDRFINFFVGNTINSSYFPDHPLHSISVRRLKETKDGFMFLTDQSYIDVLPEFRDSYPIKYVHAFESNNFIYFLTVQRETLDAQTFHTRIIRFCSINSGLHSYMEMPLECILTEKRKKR
Sequence of cMet-Fc fusion protein (P08581 with tags, fused parts or gaps limits assumed): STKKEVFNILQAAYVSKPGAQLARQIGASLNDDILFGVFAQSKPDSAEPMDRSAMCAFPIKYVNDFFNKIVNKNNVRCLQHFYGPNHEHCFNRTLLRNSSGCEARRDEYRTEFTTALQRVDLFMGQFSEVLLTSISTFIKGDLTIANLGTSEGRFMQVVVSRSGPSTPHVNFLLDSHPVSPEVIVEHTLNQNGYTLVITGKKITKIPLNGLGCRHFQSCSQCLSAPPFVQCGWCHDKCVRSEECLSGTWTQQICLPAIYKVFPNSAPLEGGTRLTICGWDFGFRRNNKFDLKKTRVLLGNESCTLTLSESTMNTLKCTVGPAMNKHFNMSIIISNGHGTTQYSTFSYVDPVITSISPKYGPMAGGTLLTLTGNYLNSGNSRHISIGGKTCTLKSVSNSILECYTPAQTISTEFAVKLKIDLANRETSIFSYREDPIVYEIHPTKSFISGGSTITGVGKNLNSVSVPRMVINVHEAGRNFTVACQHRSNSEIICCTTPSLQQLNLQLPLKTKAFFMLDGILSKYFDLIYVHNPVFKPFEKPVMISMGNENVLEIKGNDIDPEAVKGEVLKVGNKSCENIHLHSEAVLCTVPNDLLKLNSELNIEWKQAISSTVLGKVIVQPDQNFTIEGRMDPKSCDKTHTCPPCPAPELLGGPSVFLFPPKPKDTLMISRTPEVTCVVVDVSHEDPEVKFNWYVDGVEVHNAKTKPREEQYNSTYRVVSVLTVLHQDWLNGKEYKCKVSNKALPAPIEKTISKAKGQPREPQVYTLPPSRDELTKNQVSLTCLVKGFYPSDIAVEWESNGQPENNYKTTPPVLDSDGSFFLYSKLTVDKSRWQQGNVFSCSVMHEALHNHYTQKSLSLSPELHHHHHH

| Compound | Protein ELISA (cMet-Fc fusion protein) | WC ELISA [1] |
| --- | --- | --- |
| AGVTNCNLSTMFCFLHGT (Synthetically generated cMet-binding peptide sequence) [SEQ ID NO: 026] | 3.8 fold over background | 1.30 fold over background |
| AGKTVCQKWESVCSGMGT (Synthetically generated cMet-binding peptide sequence) [SEQ ID NO: 038] | 3.1 fold over background | 1.30 fold over background |
| CC[C@H](C)[C@H](NC(=O)[C@H](Cc1c[nH]c2ccccc12)NC(=O)[C@H](CO)NC(=O)CNC(C)=O)C(=O)N[C@H](C(=O)N[C@H]1CSSC[C@@H](C(=O)NCC(=O)N[C@@H](CO)C(=O)N[C@@H](CO)C(=O)N[C@@H](C)C(=O)N2CCC[C@H]2C(=O)NCC(=O)NCC(=O)NCC(=O)N[C@@H](CCCCNC(=O)c2ccc3c(c2)C(=O)OC32c3ccc(O)cc3Oc3cc(O)ccc32)C(N)=O)NC(=O)[C@H](CC(N)=O)NC(=O)[C@H](CC(=O)O)NC(=O)[C@H](Cc2c[nH]c3ccccc23)NC(=O)[C@H](Cc2c[nH]c3ccccc23)NC1=O)[C@@H](C)CC [SEQ ID NO: 001] | 4.9 fold over background | 1.30 fold over background |
| CC[C@H](C)[C@H](NC(=O)[C@H](CO)NC(=O)CNC(=O)[C@H](C)NC(C)=O)C(=O)N[C@@H](CCC(N)=O)C(=O)N[C@H]1CSSC[C@@H](C(=O)N[C@@H](C)C(=O)N[C@@H](CCSC)C(=O)N[C@@H](Cc2ccc(O)cc2)C(=O)NCC(=O)N[C@H](C(=O)NCC(=O)NCC(=O)NCC(=O)N[C@@H](CCCCNC(=O)c2ccc3c(c2)C(=O)OC32c3ccc(O)cc3Oc3cc(O)ccc32)C(N)=O)[C@@H](C)O)NC(=O)[C@H](CO)NC(=O)[C@H](Cc2ccccc2)NC(=O)[C@H](Cc2c[nH]c3ccccc23)NC(=O)[C@@H]2CCCN2C(=O)[C@@H]2CCCN2C(=O)CNC(=O)[C@H](CCCCN)NC1=O [SEQ ID NO: 048] | 15.9 fold over background | 1.47 fold over background |
| AGWGWCSGPPMFMCTEYGT (Synthetically generated cMet-binding peptide sequence) [SEQ ID NO: 099] | 4.0 fold over background | 1.30 fold over background |
| GSQQICDRKEYRFQACLSDAP (Synthetically generated cMet-binding peptide sequence) [SEQ ID NO: 371] | 3.4 fold over background | 1.40 fold over background |
| AGVWICRVWDDECFFQGT (Synthetically generated cMet-binding peptide sequence) [SEQ ID NO: 020] | 3.7 fold over background | 1.37 fold over background |
| AGHFECPKHQYMCDMPGT (Synthetically generated cMet-binding peptide sequence) [SEQ ID NO: 042] | 3.1 fold over background | 1.23 fold over background |
| AGAFFCSGPPTFMCSLYGT (Synthetically generated cMet-binding peptide sequence) [SEQ ID NO: 098] | 6.2 fold over background | 1.27 fold over background |
| AGLYLCDLSIMYCFFQGT (Synthetically generated cMet-binding peptide sequence) [SEQ ID NO: 015] | 4.3 fold over background | 1.33 fold over background |
| AGPWKCTGPPTFSCIQFGT (Synthetically generated cMet-binding peptide sequence) [SEQ ID NO: 090] | 19.5 fold over background | 1.23 fold over background |

Further lines, results first:

| Protein ELISA (cMet-Fc fusion protein) | WC ELISA [1] | Compound |
| --- | --- | --- |
| 13.5 fold over background | 1.40 fold over background | GDLLGCGYQEKGGEYKCRFNDP (Synthetically generated cMet-binding peptide sequence) [SEQ ID NO: 395] |
| 8.2 fold over background | 1.33 fold over background | CSCC[C@H](NC(=O)[C@H](CCCNC(=N)N)NC(=O)[C@H](Cc1c[nH]c2ccccc12)NC(=O)[C@H](CO)NC(=O)[C@H](CO)NC(=O)[C@H](CC(C)C)NC(=O)[C@H](Cc1ccccc1)NC(=O)[C@H](CC(=O)O)NC(=O)[C@H](CC(C)C)NC(=O)[C@H](Cc1ccc(O)cc1)NC(=O)[C@H](Cc1c[nH]c2ccccc12)NC(=O)[C@H](Cc1ccc(O)cc1)NC(=O)[C@@H]1CCCN1C(=O)[C@H](CCC(=O)O)NC(=O)[C@H](CCC(=O)O)NC(=O)[C@@H](NC(=O)[C@H](CCC(=O)O)NC(=O)[C@H](CCCNC(=N)N)NC(=O)[C@H](CCC(N)=O)NC(=O)[C@H](C)NC(C)=O)C(C)C)C(=O)N[C@@H](Cc1c[nH]cn1)C(=O)N[C@@H](CCC(=O)O)C(=O)NCC(=O)NCC(=O)NCC(=O)N[C@@H](CCCCNC(=O)c1ccc2c(c1)C(=O)OC21c2ccc(O)cc2Oc2cc(O)ccc21)C(N)=O [SEQ ID NO: 451] |
| 3.7 fold over background | 1.80 fold over background | CC[C@H](C)[C@H](NC(=O)CNC(=O)[C@H](Cc1ccccc1)NC(=O)[C@H](Cc1c[nH]c2ccccc12)NC(=O)[C@H](CO)NC(=O)CNC(=O)[C@H](Cc1c[nH]c2ccccc12)NC(=O)[C@H](Cc1ccccc1)NC(=O)CNC(=O)[C@H](CC(=O)O)NC(=O)[C@@H](NC(=O)[C@H](Cc1ccccc1)NC(=O)[C@H](Cc1ccc(O)cc1)NC(=O)[C@H](CCC(=O)O)NC(=O)[C@H](CCCNC(=N)N)NC(=O)[C@H](CCC(=O)O)NC(=O)[C@H](Cc1c[nH]c2ccccc12)NC(=O)[C@H](CCC(=O)O)NC(=O)[C@H](CCC(N)=O)NC(=O)[C@H](C)NC(C)=O)C(C)C)C(=O)N1CCC[C@H]1C(=O)N[C@@H](Cc1c[nH]cn1)C(=O)NCC(=O)NCC(=O)NCC(=O)N[C@@H](CCCCNC(=O)c1ccc2c(c1)C(=O)OC21c2ccc(O)cc2Oc2cc(O)ccc21)C(N)=O [SEQ ID NO: 472] |
| 11.1 fold over background | 1.23 fold over background | GDHLTCEFRDDGWKEHCWWSDP (Synthetically generated cMet-binding peptide sequence) [SEQ ID NO: 403] |
| 3.2 fold over background | 1.23 fold over background | AQWGAVDNDWYDWEMEQIWMFE (Synthetically generated cMet-binding peptide sequence) [SEQ ID NO: 491] |
| 3.0 fold over background | 1.27 fold over background | AQMWHRVHDPGYTFEVTWLWDN (Synthetically generated cMet-binding peptide sequence) [SEQ ID NO: 488] |
| 4.3 fold over background | 1.10 fold over background | CC[C@H](C)[C@H](NC(=O)CNC(=O)[C@H](CCC(N)=O)NC(=O)[C@@H](NC(=O)[C@H](CCC(N)=O)NC(=O)[C@H](C)NC(C)=O)[C@@H](C)CC)C(=O)N[C@@H](CCC(N)=O)C(=O)N[C@@H](CCCCN)C(=O)N[C@H](C(=O)N[C@@H](CCC(=O)O)C(=O)N[C@@H](CCC(N)=O)C(=O)NCC(=O)N[C@@H](CCC(=O)O)C(=O)N[C@@H](Cc1ccccc1)C(=O)N[C@@H](Cc1ccc(O)cc1)C(=O)N[C@@H](Cc1c[nH]c2ccccc12)C(=O)N[C@@H](Cc1ccccc1)C(=O)N[C@@H](CC(N)=O)C(=O)N[C@@H](Cc1c[nH]c2ccccc12)C(=O)N[C@@H](Cc1ccccc1)C(=O)N1CCC[C@H]1C(=O)N[C@@H](C)C(=O)NCC(=O)NCC(=O)NCC(=O)N[C@@H](CCCCNC(=O)c1ccc2c(c1)C(=O)OC21c2ccc(O)cc2Oc2cc(O)ccc21)C(N)=O)[C@@H](C)O [SEQ ID NO: 450] |
| 7.0 fold over background | 1.37 fold over background | AQNAVVPPPMLWSIYWDYGREG (Synthetically generated cMet-binding peptide sequence) [SEQ ID NO: 457] |
| 3.5 fold over background | 1.30 fold over background | CC(=O)N[C@@H](C)C(=O)N[C@@H](CCC(N)=O)C(=O)N[C@@H](Cc1c[nH]cn1)C(=O)N[C@@H](Cc1c[nH]c2ccccc12)C(=O)N[C@@H](CC(=O)O)C(=O)N[C@@H](Cc1ccc(O)cc1)C(=O)N[C@@H](CC(=O)O)C(=O)N[C@@H](CO)C(=O)NCC(=O)N[C@@H](CO)C(=O)N[C@@H](CC(=O)O)C(=O)N[C@@H](Cc1ccccc1)C(=O)N[C@@H](Cc1c[nH]c2ccccc12)C(=O)N[C@@H](Cc1ccccc1)C(=O)N1CCC[C@H]1C(=O)N[C@H](C(=O)N[C@@H](Cc1ccccc1)C(=O)N[C@@H](Cc1ccccc1)C(=O)N[C@@H](CC(C)C)C(=O)N[C@@H](CCC(=O)O)C(=O)N[C@@H](Cc1c[nH]cn1)C(=O)N[C@@H](Cc1c[nH]cn1)C(=O)NCC(=O)NCC(=O)NCC(=O)N[C@@H](CCCCNC(=O)c1ccc2c(c1)C(=O)OC21c2ccc(O)cc2Oc2cc(O)ccc21)C(N)=O)C(C)C [SEQ ID NO: 475] |
